In article PMC8034648, “Oligomeric complexes formed by Redβ single strand annealing protein in its different DNA bound states”:
Values joined by “and” are separate entries in the source; they are usually repeats but may differ in a detail not shown here. Equal values may be shown once.

How the values were obtained:
[1] = biological target: Redβ single strand annealing protein from bacteriophage λ (bacteriophage λ) (UniProt P03698); experiment: native MS; Redβ (0.1 to 30 μM) with two complementary 38-mers added sequentially (dT38:dA38; at 1 μM also 38NC1+:38NC1- and 38NC3+:40NC3-), annealed duplex; 50 mM ammonium acetate pH 7
[2] = biological target: Redβ single strand annealing protein from bacteriophage λ (bacteriophage λ) (UniProt P03698); experiment: SEC-MALS; Redβ with 83- then 83+ added sequentially (annealed duplex); Superose 6 increase, PBS; loaded at 34 μM; n assumes one copy of 83-:83+
[3] = biological target: Redβ single strand annealing protein from bacteriophage λ (bacteriophage λ) (UniProt P03698); experiment: native MS; Redβ (0.1 to 30 μM) with two complementary 38-mers added sequentially (dT38:dA38; at 1 μM also 38NC1+:38NC1- and 38NC3+:40NC3-), annealed duplex; 50 mM ammonium acetate pH 7; remark: listed apart in the source
[4] = biological target: Redβ single strand annealing protein from bacteriophage λ (bacteriophage λ) (UniProt P03698); experiment: native MS; Redβ alone, no DNA, at 1 μM or greater (up to 30 μM); 50 mM ammonium acetate pH 7; monomers to 12-mer
[5] = biological target: Redβ single strand annealing protein from bacteriophage λ (bacteriophage λ) (UniProt P03698); experiment: native MS; 1 μM Redβ with two complementary strands added sequentially (83-:83+ or 83-:87+), annealed duplex; 50 mM ammonium acetate pH 7
[6] = biological target: Redβ single strand annealing protein from bacteriophage λ (bacteriophage λ) (UniProt P03698); experiment: native MS; Redβ alone, no DNA, at 1 μM or greater (up to 30 μM); 50 mM ammonium acetate pH 7; monomers to 12-mer; remark: listed apart in the source
[7] = biological target: Redβ single strand annealing protein from bacteriophage λ (bacteriophage λ) (UniProt P03698); experiment: SEC-MALS; Redβ alone, no DNA; Superose 6 increase 3.2/300, PBS, 0.04 ml/min; loaded at 34, 67 and 101 μM, eluted at 6.0, 13.5 and 18.5 μM; weight-average mass; monomers to oligomer
[8] = biological target: Redβ single strand annealing protein from bacteriophage λ (bacteriophage λ) (UniProt P03698); experiment: SEC-MALS; Redβ with dT38 then dA38 added sequentially (annealed duplex, 4 nt/monomer each); Superose 6 increase, PBS; loaded at 34 μM; n assumes one copy of dT38:dA38
[9] = biological target: Redβ single strand annealing protein from bacteriophage λ (bacteriophage λ) (UniProt P03698); experiment: SEC-MALS; Redβ with dT38 ssDNA (6 nt/monomer, 22°C, 30 min); Superose 6 increase, PBS; loaded at 34 μM; n assumes one copy of dT38
[10] = biological target: Redβ single strand annealing protein from bacteriophage λ (bacteriophage λ) (UniProt P03698); experiment: native MS; 1 μM Redβ with two complementary strands added sequentially (83-:83+ or 83-:87+), annealed duplex; 50 mM ammonium acetate pH 7; remark: listed apart in the source
[11] = biological target: Redβ single strand annealing protein from bacteriophage λ (bacteriophage λ) (UniProt P03698); experiment: SEC-MALS; Redβ with 83- ssDNA (6 nt/monomer, 22°C, 30 min); Superose 6 increase, PBS; loaded at 34 μM; n assumes one copy of the 83-mer
[12] = biological target: Redβ single strand annealing protein from bacteriophage λ (bacteriophage λ) (UniProt P03698); experiment: SEC-MALS; Redβ with dT38 ssDNA (6 nt/monomer, 22°C, 30 min); Superose 6 increase, PBS; loaded at 34 μM; n assumes one copy of dT38; remark: listed apart in the source
[13] = biological target: T1, Redβ single strand annealing protein (bacteriophage λ, UniProt P03698); experiment: EMSA; PBS, ssDNA alone; EMSA: 10 uM Redβ, 50 uM nt DNA, 37 C, in PBS, or 20 mM Tris-HCl pH 7.5/10 mM NaCl/10 mM MgCl2, or 50 mM ammonium acetate pH 7.0; SEC-MALS: PBS, complexes formed; settings: protein: recombinant, tags: N-terminal GSH left after thrombin removal of 6xHis, chain copies: 11
T1 sequence: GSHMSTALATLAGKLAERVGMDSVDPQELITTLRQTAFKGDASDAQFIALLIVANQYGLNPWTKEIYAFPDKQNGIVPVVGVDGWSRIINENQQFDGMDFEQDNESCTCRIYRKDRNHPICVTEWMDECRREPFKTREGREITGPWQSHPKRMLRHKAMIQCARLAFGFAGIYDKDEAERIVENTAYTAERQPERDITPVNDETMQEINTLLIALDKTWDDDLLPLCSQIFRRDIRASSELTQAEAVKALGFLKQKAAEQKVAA

[14] = biological target: T1, Redβ single strand annealing protein; experiment: EMSA; strands added sequentially, PBS; EMSA: 10 uM Redβ, 50 uM nt DNA, 37 C, in PBS, or 20 mM Tris-HCl pH 7.5/10 mM NaCl/10 mM MgCl2, or 50 mM ammonium acetate pH 7.0; SEC-MALS: PBS, complexes formed; settings: protein: recombinant; tags: N-terminal GSH left after thrombin removal of 6xHis; chain copies: 11; label: 5'-Cy5, 5'-Cy3; blunt
[15] = biological target: T1, Redβ single strand annealing protein; experiment: SEC-MALS; PBS; 427 kDa, n=14.0; EMSA: 10 uM Redβ, 50 uM nt DNA, 37 C, in PBS, or 20 mM Tris-HCl pH 7.5/10 mM NaCl/10 mM MgCl2, or 50 mM ammonium acetate pH 7.0; SEC-MALS: PBS, complexes formed; settings: protein: recombinant; tags: N-terminal GSH left after thrombin removal of 6xHis; chain copies: 11
[16] = biological target: T1, Redβ single strand annealing protein; experiment: EMSA; added first, then noncomplementary Cy5 50mer; unusually high affinity; EMSA: 10 uM Redβ, 50 uM nt DNA, 37 C, in PBS, or 20 mM Tris-HCl pH 7.5/10 mM NaCl/10 mM MgCl2, or 50 mM ammonium acetate pH 7.0; SEC-MALS: PBS, complexes formed; settings: protein: recombinant; tags: N-terminal GSH left after thrombin removal of 6xHis; chain copies: 11; label: 5'-Cy3
[17] = biological target: T1, Redβ single strand annealing protein; experiment: native MS; 1 uM Redβ and higher; 8-13 subunits; EMSA: 10 uM Redβ, 50 uM nt DNA, 37 C, in PBS, or 20 mM Tris-HCl pH 7.5/10 mM NaCl/10 mM MgCl2, or 50 mM ammonium acetate pH 7.0; SEC-MALS: PBS, complexes formed; settings: protein: recombinant; tags: N-terminal GSH left after thrombin removal of 6xHis; chain copies: 11
[18] = biological target: T1, Redβ single strand annealing protein; experiment: native MS; 1 uM Redβ; 5-15 subunits, 1 or 2 DNA; EMSA: 10 uM Redβ, 50 uM nt DNA, 37 C, in PBS, or 20 mM Tris-HCl pH 7.5/10 mM NaCl/10 mM MgCl2, or 50 mM ammonium acetate pH 7.0; SEC-MALS: PBS, complexes formed; settings: protein: recombinant; tags: N-terminal GSH left after thrombin removal of 6xHis; chain copies: 11
[19] = biological target: T1, Redβ single strand annealing protein; experiment: native MS; strands added sequentially, 1 uM Redβ; 11 subunits; EMSA: 10 uM Redβ, 50 uM nt DNA, 37 C, in PBS, or 20 mM Tris-HCl pH 7.5/10 mM NaCl/10 mM MgCl2, or 50 mM ammonium acetate pH 7.0; SEC-MALS: PBS, complexes formed; settings: protein: recombinant, tags: N-terminal GSH left after thrombin removal of 6xHis, chain copies: 11

For “Redβ single strand annealing protein from bacteriophage λ (from UniProt P03698 1-261) (natural protein)”, the stoichiometry N [1] was 11 subunits, the stoichiometry N [2] was 18.2 subunits and the stoichiometry N [3] was 9 subunits and 10 subunits. For the same molecule, the stoichiometry N [4] was 12 subunits, the stoichiometry N [5] was 22 subunits and the midpoint of the transition from monomer to 12-mer [6] was 1 µM. The stoichiometry N [6] was 1 to 14 subunits, the stoichiometry N [7] was 8.6 subunits and 9.1 subunits and the stoichiometry N [8] was 11.3 subunits. For the same molecule, the stoichiometry N [9] was 14.1 subunits, the stoichiometry N [10] was 21 subunits and 23 subunits and the stoichiometry N [11] was 21.1 subunits. It also gave a stoichiometry N [12] of 14 subunits.

“Redβ single strand annealing protein from bacteriophage λ (from UniProt P03698 1-261)” gave a stoichiometry N [7] of 7.7 subunits.

GCCCTGCATAGCTCGATTTT (ssDNA) [Cy3 20mer]: no binding ([13]; label: 5'-Cy3).

AAAATCGAGCTATGCA (ssDNA) [Cy5 16mer]: no binding ([13]; label: 5'-Cy5).

TGCATAGCTCGATTTT (ssDNA) [Cy3 16mer]: no binding ([13]; label: 5'-Cy3).

B1: 28mer annealed duplex (dsDNA)
DNA 1: AAAATCGAGCTATGCAGGGCGATTCTGC
DNA 2: GCAGAATCGCCCTGCATAGCTCGATTTT
B1: binds [14].

B2: 24mer annealed duplex (dsDNA)
DNA 1: AAAATCGAGCTATGCAGGGCGATT
DNA 2: AATCGCCCTGCATAGCTCGATTTT
B2: binds [14].

B3: 20mer annealed duplex (dsDNA)
DNA 1: AAAATCGAGCTATGCAGGGC
DNA 2: GCCCTGCATAGCTCGATTTT
B3: binds [14].

TTTTTTTTTTTTTTTTTTTTTTTTTTTTTTTTTTTTTT (ssDNA) [dT38]: binds [15].

GAGTGATAGGCATATGTGCTACGAGTATCGAAGGAACGGTCACTACGCAA (ssDNA) [Cy3 NC 50mer]: binds [16].

AAAAAAAAAAAAAAAAAAAAAAAAAAAAAAAAAAAAAA (ssDNA) [dA38]: binds [17].

AGACACAGTAAACGGACGCTAGATGCAACGAGATCCGA (ssDNA) [38NC1+]: binds [18].

TCGGATCTCGTTGCATCTAGCGTCCGTTTACTGTGTCT (ssDNA) [38NC1-]: binds [18].

GACGCACAATGACAGATAACACAATGGCGAGATAACGC (ssDNA) [38NC3+]: binds [18].

GCGTTATCTCGCCATTGTGTTATCTGTCATTGTGCGTCGC (ssDNA) [40NC3-]: binds [18].

B4: 38NC1+:38NC1- (dsDNA)
DNA 1: AGACACAGTAAACGGACGCTAGATGCAACGAGATCCGA
DNA 2: TCGGATCTCGTTGCATCTAGCGTCCGTTTACTGTGTCT
B4: binds ([19]; blunt).

B5: 38NC3+:40NC3- (dsDNA)
DNA 1: GACGCACAATGACAGATAACACAATGGCGAGATAACGC
DNA 2: GCGTTATCTCGCCATTGTGTTATCTGTCATTGTGCGTCGC
B5: binds ([19]; 3' overhang 2 nt on strand 2).

AAAATCGAGCTATGCAGGGCGATTCTGC (ssDNA) [Cy5 28mer]: no binding ([13]; label: 5'-Cy5).

GCAGAATCGCCCTGCATAGCTCGATTTT (ssDNA) [Cy3 28mer]: no binding ([13]; label: 5'-Cy3).

AAAATCGAGCTATGCAGGGCGATT (ssDNA) [Cy5 24mer]: no binding ([13]; label: 5'-Cy5).

AATCGCCCTGCATAGCTCGATTTT (ssDNA) [Cy3 24mer]: no binding ([13]; label: 5'-Cy3).

AAAATCGAGCTATGCAGGGC (ssDNA) [Cy5 20mer]: no binding ([13]; label: 5'-Cy5).
